T1: CMV phosphoprotein pp65 (SEQ 34) peptide on HLA-A*11:01 (human)
T1 peptide: ATVQGQNLK


Molecular target: T1, CMV phosphoprotein pp65 (SEQ 34) …
Assay: multimer staining

Row | Binder | binding result
1 | C44 (TCR, V domains shown) Valpha: AQTVTQSQPEMSVQEAETVTLSCTYDTSESDYYLFWYKQPPSRQMILVIRQEAYKQQNATENRFSVNFQKAAKSFSLKISDSQLGDAAMYFCAYRAFYTGANSKLTFGKGITLSVRP Vbeta: DAGVTQSPTHLIKTRGQQVTLRCSPKSGHDTVSWYQQALGQGPQFIFQYYEEEERQRGNFPDRFSGHQFPNYSSELNVNALLLGDSALYLCASSFFRGEGNQPQHFGDGTRLSIL | recognises
2 | C45 (TCR, V domains shown) Valpha: DQQVKQNSPSLSVQEGRISILNCDYTNSMFDYFLWYKKYPAEGPTFLISISSIKDKNEDGRFTVFLNKSAKHLSLHIVPSQPGDSAVYFCAASAWNTGNQFYFGTGTSLTVIP Vbeta: KAGVTQTPRYLIKTRGQQVTLSCSPISGHRSVSWYQQTPGQGLQFLFEYFSETQRNKGNFPGRFSGRQFSNSRSEMNVSTLELGDSALYLCASSLAGYKQETQYFGPGTRLLVL | recognises

— patent US20230257447A1 (published 2023)
